This assay deals with HCV1406 TCR. The assay is described as follows: SPR; steady-state titration; TCR amine coupled to the sensor surface (1000-5000 RU), peptide/HLA-A2 injected at increasing concentrations, 5 μL/min, 25 °C, HBS-EP (10 mM HEPES, 150 mM NaCl, 3 mM EDTA, 0.005% surfactant P20, pH 7.4); 1:1 model; mutants globally fit alongside wild type with a shared RUmax. (SPR reads the build-up and loss of mass on a sensor chip optically.)

pKd: −log10 of the molar value.

As for “NS3/HLA-A2 with Arg65 of HLA-A2 mutated to alanine (from UniProt P61769 21-119) (peptide-MHC)”, the pKd (usually −log10 of the Kd, conventionally taken in molar units) is less than 2.82.

The record behind these values is publication PMC9691722.
